Patent publication US20060039913A1 (Janssen / Centocor, published 2006)
“And” between values parts separate entries of the source, which are not always exact repeats. Equal values may be shown once. One block for each molecule: values may come before it.

What was measured:
[1] = biological target: chemokine receptor CCR2 on THP-1 cells (human) (UniProt P41597); test: radioligand saturation binding on THP-1 cells, one-site binding hyperbola fit; mass concentration as fitted
[2] = biological target: chemokine receptor CCR2 on THP-1 cells (human) (UniProt P41597); test: radioligand saturation binding on THP-1 cells, one-site binding hyperbola fit; molar conversion with 150 kDa
[3] = biological target: chemokine receptor CCR2 on THP-1 cells (human) (UniProt P41597); test: radioligand saturation binding of 125I MCP-1 to THP-1 cells (CCR2), specific bound cpm, one site binding (hyperbola) fit
[4] = biological target: T1, human Eotaxin-2 (CCL24, MPIF-2) (human, UniProt O00175 27-104, limits assumed); test: BIAcore, C775 captured on anti-Fc surface, single ligand concentration
T1 sequence (looked up): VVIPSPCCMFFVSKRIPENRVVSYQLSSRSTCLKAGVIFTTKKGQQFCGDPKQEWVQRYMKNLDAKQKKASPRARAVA
Text: (§1) Anti-MCP-1 monoclonal antibodies were captured onto a BIAcore CM5 sensor surface (Biacore International, Piscataway, N.J.). A solution containing a mixture of rabbit anti-human Fc specific polyclonal antibodies and rabbit anti-mouse Fc specific polyclonal antibodies was first immobilized onto the sensor surface. After the restabilization of the new baseline, the anti-MCP-1 mAb is passed over the surface.
(§2) Human MCP-1 purchased from R&D Systems (www.rndsystems.com) was reconstituted as proscribed by the vendor. Samples of varying concentrations were prepared using this stock solution. They were then passed over the surface of captured anti-MCP-1 mAb using KINJECT command at a flow rate of […]. Measurements are typically performed at 25° C. Sensor data was analyzed using the BLAevaluation software provided with the instrument.
(§3) Analysis is performed as described above, with the exception only a single concentration is used, typically, a high ligand concentration (100 nM). Chemokines selected for mAb specificity were human forms of MCP-1, MCP-2, Eotaxin-1, Eotaxin-2 (CCL24, MPIF-2, NP_{—}002982) and Eotaxin-3 (CCL26, GenBank Q9Y258). All chemokines were purchased from R&D Systems. Dextran-sulfate (1%) was added to the sample buffer in the final round of assays to reduce non-specific binding, particularly to eotaxin-3.

human MCP-2 = biological target: T2, human MCP-2 (human, UniProt P80075 24-99); test: as above
T2 sequence (looked up): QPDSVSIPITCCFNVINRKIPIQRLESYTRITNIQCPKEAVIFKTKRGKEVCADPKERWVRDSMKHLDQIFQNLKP
Text: as §1, §2, §3

human Eotaxin-3 (CCL26) = biological target: T3, human Eotaxin-3 (CCL26) (human, UniProt Q9Y258 24-94); test: as above
T3 sequence (looked up): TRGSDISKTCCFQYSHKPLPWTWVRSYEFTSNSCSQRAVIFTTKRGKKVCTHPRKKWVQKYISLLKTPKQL
Text: as §1, §2, §3

[5] = biological target: T4, recombinant human MCP-1 (monocyte chemoattractant protein 1) (human, UniProt P13500 24-99); test: BIAcore, C775 captured on anti-Fc surface, MCP-1 in solution, 25 C
T4 construct: Bought recombinant protein (RDI-304 for the EIA; R&D Systems 279-MC for the other assays); also called rHuMCP-1; cold MCP-1
Text: as §1, §2

[6] = biological target: T4, recombinant human MCP-1 (monocyte …); test: BIAcore, ratio of binding constants, reference eotaxin
Protocol: as §1, §3
The data for binding of C775 to each of the ligand described was processed to give a binding constant, where measurable. There was no measurable binding of C775 to any of the other MCP-1 homologs or eotaxin homologs. The calculated binding constant of C775 to MCP-1 by this method was 1.0 nM and for eotaxin >5 uM, respectively, for a ligand concentration 100 nM. Therefore, the binding specificity of C775 for MCP-1 as compared to eotaxin is >5000 fold. […]

[7] = biological target: T4, recombinant human MCP-1 (monocyte …); test: cell-based or functional assay
[8] = biological target: T5, 125I labeled human MCP-1 (NEX332, Perkin Elmer) (human, UniProt P13500 24-99, 125I label, residue not stated); test: inhibition of 125I MCP-1 (1 ng/ml) binding to CCR2 on THP-1 cells, filter plate radioligand assay
T5 construct: Bought radio-iodinated MCP-1; also called radiolabeled MCP-1
Protocol: Negative controls (no inhibition) or total binding was measured in 50 ul of assay buffer with no other additions. Nonspecific binding (background) was measured by adding 50 ul of MCP-1 at a final concentration of […]. Test wells received 50 ul of serial dilutions of mAb. Lastly, 50 ul of ¹²⁵I MCP-1 at a final concentration of 1 ng/ml was added to all wells resulting in a total assay volume of […].
To test the efficacy of anti-MCP-1 mabs, a concentration of 1 ng/ml ¹²⁵I MCP-1 was used. Cells were incubated with 1 ng/ml ¹²⁵I MCP-1 with or without serial dilutions of either the commercial Mab (positive control) or 6 different Mabs generated in Example 2. There is a dose-dependent inhibition of ¹²⁵I MCP-1 binding to the CCR2 receptor with the commercial Mab. A dose-dependent inhibition was also observed with five of the six Centocor-generated Mabs allowing the calculation of an IC50 concentration: C727, C728, C752, C753 and, C775.

T4 sequence (P13500 24-99 limits assumed): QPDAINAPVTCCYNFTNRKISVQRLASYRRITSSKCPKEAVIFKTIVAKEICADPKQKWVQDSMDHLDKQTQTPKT
T5 sequence (P13500 24-99 limits assumed): as above

Kd [1]: 0.00896 µg/mL | Kd [2]: 1 nM | BMAX [3]: 15700 cpm
Molecule: 125I labeled human MCP-1 (NEX332, Perkin Elmer) (from UniProt P13500 24-99) (ligand)

binding result [4]: no binding (tested: 100 nM ligand) | binding result (human MCP-2): no binding (tested: 100 nM ligand) | binding result (human Eotaxin-3 (CCL26)): no binding (tested: 100 nM ligand) | Kd [5]: 1 nM | binding specificity for MCP-1 as compared to eotaxin (fold) [6]: > 5000 fold | IC50 (nM), Ca2+ mobilization in THP-1 cells with 300 ng/ml MCP-1 [7]: 53 nM | IC50 (µg/ml), Ca2+ mobilization in THP-1 cells with 300 ng/ml MCP-1 [7]: 8.01 µg/mL | IC50 [8]: 7.1 µg/mL and 47 nM
B1: murine anti-human MCP-1 monoclonal antibody C775 (antibody, mouse IgG1, V domains shown)
VH: QVQLKQSGAELVRPGASVKLSCKASGYTFTDYYINWVKQRPGQGLEWIARIYPGTGNTYYNENFKGKATLTAEKSSSTAYMQLSSLTSEDSAVYFCARSGSTVVGNYYGMDYWGQGTSVTVSS
VL: SIVMTQTPKFLLVSAGDRVSITCKASQSVSNDVAWYQQKPGQSPKLLIYYASNRYTGVPDRFTGSGYGTDFTFTISTVQAEDLAVYFCQQDYSSPWTFGGGTKLEIKR
notes: also called CNTO4874; CNTO 4874
